Assay results: patent publication CN115043942A

Target: 人ROR1 ECD蛋白 (胞外结构域aa30-406) (human) (UniProt Q01973)
Test: BLI (Octet ForteBio), antibody on AHC probe, human ROR1 ECD in solution, 1:1 model; mean of two determinations

Sequence of UniProt Q01973 (Q01973 30-406): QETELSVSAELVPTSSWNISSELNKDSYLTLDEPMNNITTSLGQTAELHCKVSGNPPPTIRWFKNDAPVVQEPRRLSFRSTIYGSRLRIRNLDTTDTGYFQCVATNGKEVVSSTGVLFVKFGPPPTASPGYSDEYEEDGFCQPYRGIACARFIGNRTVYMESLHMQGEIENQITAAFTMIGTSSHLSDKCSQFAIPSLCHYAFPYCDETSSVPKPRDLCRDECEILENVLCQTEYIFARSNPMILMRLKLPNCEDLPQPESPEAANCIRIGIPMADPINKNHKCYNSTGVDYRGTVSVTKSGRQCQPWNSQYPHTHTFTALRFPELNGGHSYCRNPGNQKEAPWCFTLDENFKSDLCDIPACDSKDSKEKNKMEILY

B1: 抗人ROR1抗体UC961 (带有人IgG1) (antibody, from another filing, V domains shown)
VH: QVQLQESGPGLVKPSQTLSLTCTVSGYAFTAYNIHWVRQAPGQGLEWMGSFDPYDGGSSYNQKFKDRLTISKDTSKNQVVLTMTNMDPVDTATYYCARGWYYFDYWGHGTLVTVSS
VL: DIVMTQTPLSLPVTPGEPASISCRASKSISKYLAWYQQKPGQAPRLLIYSGSTLQSGIPPRFSGSGYGTDFTLTINNIESEDAAYYFCQQHDESPYTFGEGTKVEIK
- Kd: 15.8 nM
- koff: 0.0137 s⁻¹
- kon: 981000 M⁻¹ s⁻¹
